# Assay results: patent US20200009222A1, “[…] ACTIVE COMPLEXES” (HAMLET PHARMA AB, priority 2016, published 2020)
# B1: HAMLET (protein)
# chain: KQFTKCELSQLLKDIDGYGGIALPELICTMFHTSGYDTQAIVENNESTEYGLFQISNKLWCKSSQVPQSRNICDISCDKFLDDDITDDIMCAKKILDIKGIDYWLAHKALCTEKLEQWLCEKL
# What was measured:
# MB49 bladder tumor = experiment: Real-time in vivo fluorescence imaging and tissue uptake of labeled complex; conditions: tumor-bearing mice; intravesical; 24 hours
# Protocol: HAMLET or peptides were labeled using VivoTag 680XL Protein Labeling Kit (Perkin Elmer). Mice were anaesthetized using Isofluorane and 100 ul solution of labeled HAMLET or peptide was instilled in bladders of tumor bearing or healthy control mice.
# Hair was removed from the ventral sides of anesthetized mice. Mice were imaged at various time points using an IVIS Spectrum imaging system (Perkin Elmer). Signals from HAMLET or peptides were acquired at fluorescent settings with 680 nm excitation. For tissue specific uptake, Alexa-568 labeled peptide was instilled in bladders of tumor bearing or healthy control mice. Mice were sacrificed after 24 hours of treatment and bladder sections were imaged using Zeiss AX10 fluorescence microscope.
# The retention of alpha-peptide oleate complexes by the tumor was visualized, by in vivo imaging in mice with palpable tumors. VivoTag 680XL labeled alpha1 peptide-oleate complexes were instilled intra-vesically on day 8 after the inoculation of MB49 cells and the fluorescence signal was monitored longitudinally, using the IVIS spectrum in vivo imaging system.
# To verify that the alpha-peptides are retained by the bladder tumor, Alexa Fluor-568 labeled alpha1 peptide-oleate complexes were instilled into the bladders of tumor bearing mice (day 8, palpable tumors).
# [1] = test system: adherent lung carcinoma cells (A549); experiment: Live cell imaging of Alexa-Fluor labeled HAMLET uptake; assay type: cell-based, human; conditions: 35 μM, 1 hour
# Protocol: For uptake experiments lung carcinoma cells were treated with Alexa-488 or 568 labeled HAMLET, washed and visualized under confocal microscope live. Localization of HAMLET in lysosomes was detected by pre-labelling the cells with lysotracker (LysoTracker Green DND-26, Thermo Fisher). For peptide or peptide-oleate complexes uptake, lung carcinoma cells were treated with individual biotinylated peptide alone or mixed with sodium oleate. Cells were fixed (2% PFA, 10 min), permeabilized (0.25% Triton X-100) and blocked with FCS (10% in PBS). The biotinylated peptides were detected with Alexa-488 or 568 labeled streptavidin conjugate (1:200, 5% FCS/PBS, 1 hour). The accumulation of peptide or peptide oleate complexes in lysosomes was investigated by treatment of lung carcinoma cells with Alexa-568 labeled peptide (20%) or peptide-oleate complexes for 1 hour. Cells were counter stained with lysosomal marker, Lysotracker. Slides were examined using LSM 510 META or LSM 800 laser scanning confocal microscope (Carl Zeiss).
# During live cell imaging of Alexa-Fluor labeled HAMLET (35 μM, 1 hour) and adherent lung carcinoma cells (A549), two distinct cellular staining patterns (FIG. 1a) were detected. […] Nuclear speckles reside in the inter-chromatin space of eukaryotic nuclei and serve as important nodes in the splicing of pre-mRNA and transport of spliced RNA. […]
# SC-35 = SC-35 phosphorylation, Western blot analysis and flow cytometry; assay type: cell-based
# Protocol: Cells were grown on 6-well plates (3×10^5/well, TPP) overnight. Cells treated with HAMLET were lysed with mammalian NP-40 lysis buffer supplemented with protease and phosphatase inhibitors (both from Roche Diagnostics). […] The anti-GAPDH (1:1,000, sc-25778, Santa Cruz) and anti-Histone H3 (ab1791, Abcam) were used as loading controls. Primary antibodies followed by HRP-conjugated secondary anti-rabbit or anti-mouse antibodies (1:4000, 5% NFDM, Cell Signaling) and visualized using ECL Plus detection reagent (GE Health Care). Band intensities were quantified using the ImageJ software 1.46r (NIH).
# [2] = test system: Protein kinase C (PKC) isoforms; experiment: Kinex KAM-850 phospho-antibody array; assay type: cell-based, human; conditions: 1 hour, 21 uM
# Protocol: The in vivo kinase activity assay was performed using Kinex™ KAM-850 Antibody Microarray Services (Kinexus, Canada). Untreated and HAMLET-treated samples were performed in duplicates. Raw quantification data and basic analyses for individual samples were provided. Reference data, consolidated data of over 200 samples was also provided as reference, confirming the validity of the assay performed. Targets with percent fold change over control>10 were significant. The targets were identified in the human profiling human activity-based phosphorylation network (Molecular Systems Biology 9:655).
# PKC isoforms = experiment: ProtoArray Human Protein Microarray interaction profiling; assay type: binding; conditions: screen of 8000 human proteins
# Protocol: (§1) ProtoArray® Human Protein Microarray version 4.0 (Invitrogen) was performed as previously described^20, which consists of approximately 8,000 human proteins. AlexaFluor®568-labeled HAMLET was added to protein arrays at two concentrations (5 and 50 ng/μl) in duplicate, and the fluorescence was measured by using GenePix 6.0. Negative control array was incubated with buffer alone and scanned at a wavelength of 532 nm. […] The interactions were quantified as fold change (FCs) over the average negative control value.
# histone H3 = experiment: as above; assay type: binding; conditions: screen of 8000 human proteins
# Protocol: as §1
# bladder cancer = conditions: prior clinical study; cited from earlier work
molecule,measurement,setting,value
B1,"Fluorescence signal of VivoTag 680XL labeled complex, retention",MB49 bladder tumor,retention
same,"Population I cells (membrane blebbing, diffuse cytoplasmic staining, nuclear speckle accumulation)",[1],51%
same,"Population II cells (exclusively cytoplasmic, lysosomal uptake)",[1],47%
same,SC-35 phosphorylation,SC-35,inhibited
same,PKC isoforms with inhibited phosphorylation,[2],5/6
same,Binding to PKC isoforms in proteomic screen,PKC isoforms,identified as HAMLET targets
same,Affinity for histone H3 in proteomic screen,histone H3,confirmed
same,Toxic effects,bladder cancer,not detected
same,Tumor response to intravesical instillations,bladder cancer,massive tumor cell exfoliation
